According to the supplement of paper PMC10065799, “High-throughput profiling of sequence recognition by tyrosine kinases and SH2 domains using bacterial peptide display” (eLife, 2023):

Legend:
[1] = test system: Fer (mouse); assay: phosphorylation enrichment, bacterial display (enrichment ratio); higher = better substrate or ligand; peptides without Tyr show the background
[2] = target: EPHB1 (UniProt P54762); assay: as above
[3] = target: FGFR1 (UniProt P11362); assay: as above
[4] = target: FGFR3 (UniProt P22607); assay: as above
[5] = target: Hck (UniProt P08631); assay: as above
[6] = target: Fyn (UniProt P06241); assay: as above
[7] = test system: AncSZ; assay: as above
[8] = test system: c-Abl (mouse); assay: as above
[9] = target: MERTK (UniProt Q12866); assay: as above
[10] = test system: c-Src; assay: as above
[11] = target: Jak2 (UniProt O60674); assay: as above
[12] = target: Fes (UniProt P07332); assay: as above
[13] = target: EPHB2 (UniProt P29323); assay: as above
[14] = target: c-Src SH2; assay: SH2 binding enrichment of the phosphorylated peptide, bacterial display (enrichment ratio); higher = better substrate or ligand; peptides without Tyr show the background
[15] = target: Grb2 SH2 (UniProt P62993); assay: as above
[16] = target: SHP2-C SH2; assay: as above
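Wherever SH2 binding enrichment of the phosphorylated peptide, bacterial display is given: peptide library displayed on the E. coli surface as eCPX fusions, selected cells deep-sequenced, score is each peptide's frequency after selection divided by its frequency in the input.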
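Wherever phosphorylation enrichment, bacterial display is given: 11-residue human phosphosite peptides and single-mutation variants displayed on the E. coli surface, counted by deep sequencing, each peptide's frequency after selection divided by its frequency in the unselected input library; frequency after pTyr selection over input frequency; kinase dosed for 20-30% of maximal phosphorylation in three min.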

Chain of EPHB2 (P29323 whole entry, looked up): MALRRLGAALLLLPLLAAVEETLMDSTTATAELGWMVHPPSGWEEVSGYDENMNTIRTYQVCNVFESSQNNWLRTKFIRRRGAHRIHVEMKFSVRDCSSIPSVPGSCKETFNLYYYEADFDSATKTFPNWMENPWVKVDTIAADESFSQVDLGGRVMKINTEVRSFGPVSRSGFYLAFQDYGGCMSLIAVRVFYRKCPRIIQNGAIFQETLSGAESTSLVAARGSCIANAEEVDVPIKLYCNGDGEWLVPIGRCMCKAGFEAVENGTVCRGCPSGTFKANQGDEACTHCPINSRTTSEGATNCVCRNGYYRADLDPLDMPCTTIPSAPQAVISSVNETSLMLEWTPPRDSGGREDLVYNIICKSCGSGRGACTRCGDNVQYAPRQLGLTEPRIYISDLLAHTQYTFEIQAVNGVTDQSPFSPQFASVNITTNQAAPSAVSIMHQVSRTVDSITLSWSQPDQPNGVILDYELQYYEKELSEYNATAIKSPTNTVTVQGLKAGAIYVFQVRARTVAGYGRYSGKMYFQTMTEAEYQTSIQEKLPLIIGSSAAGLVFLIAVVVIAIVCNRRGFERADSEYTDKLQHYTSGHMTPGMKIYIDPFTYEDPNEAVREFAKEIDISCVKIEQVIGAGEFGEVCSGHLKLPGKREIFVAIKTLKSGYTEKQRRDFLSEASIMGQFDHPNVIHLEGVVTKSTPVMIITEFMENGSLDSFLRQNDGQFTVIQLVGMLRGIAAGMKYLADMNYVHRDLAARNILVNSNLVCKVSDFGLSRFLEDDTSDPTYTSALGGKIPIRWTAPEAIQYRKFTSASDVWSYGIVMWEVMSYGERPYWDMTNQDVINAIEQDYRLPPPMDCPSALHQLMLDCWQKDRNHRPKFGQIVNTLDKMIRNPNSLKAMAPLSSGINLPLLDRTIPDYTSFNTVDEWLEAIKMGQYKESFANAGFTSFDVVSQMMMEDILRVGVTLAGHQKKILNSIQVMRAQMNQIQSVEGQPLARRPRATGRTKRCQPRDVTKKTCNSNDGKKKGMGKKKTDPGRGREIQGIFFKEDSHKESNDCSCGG
Chain of FGFR3 (P22607 whole entry, looked up): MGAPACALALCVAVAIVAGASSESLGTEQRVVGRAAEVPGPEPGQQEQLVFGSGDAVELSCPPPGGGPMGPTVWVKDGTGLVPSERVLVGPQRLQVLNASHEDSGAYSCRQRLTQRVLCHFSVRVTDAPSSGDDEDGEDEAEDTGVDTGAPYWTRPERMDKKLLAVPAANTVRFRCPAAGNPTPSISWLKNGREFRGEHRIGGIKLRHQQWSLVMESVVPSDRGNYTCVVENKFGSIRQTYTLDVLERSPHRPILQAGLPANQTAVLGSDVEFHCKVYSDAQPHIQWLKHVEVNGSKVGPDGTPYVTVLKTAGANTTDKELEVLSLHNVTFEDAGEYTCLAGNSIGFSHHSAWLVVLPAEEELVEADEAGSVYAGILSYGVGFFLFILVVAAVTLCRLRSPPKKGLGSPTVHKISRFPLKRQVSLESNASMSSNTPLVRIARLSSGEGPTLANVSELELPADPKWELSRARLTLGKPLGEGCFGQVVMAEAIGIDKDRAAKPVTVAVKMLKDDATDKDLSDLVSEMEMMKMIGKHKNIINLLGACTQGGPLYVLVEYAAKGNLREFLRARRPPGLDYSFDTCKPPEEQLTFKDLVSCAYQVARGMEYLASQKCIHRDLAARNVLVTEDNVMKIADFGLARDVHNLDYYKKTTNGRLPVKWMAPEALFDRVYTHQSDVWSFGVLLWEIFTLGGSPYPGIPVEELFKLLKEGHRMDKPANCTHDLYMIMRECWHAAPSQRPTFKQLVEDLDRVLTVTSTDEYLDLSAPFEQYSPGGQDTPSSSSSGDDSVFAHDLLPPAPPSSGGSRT
Chain of EPHB1 (P54762 whole entry, looked up): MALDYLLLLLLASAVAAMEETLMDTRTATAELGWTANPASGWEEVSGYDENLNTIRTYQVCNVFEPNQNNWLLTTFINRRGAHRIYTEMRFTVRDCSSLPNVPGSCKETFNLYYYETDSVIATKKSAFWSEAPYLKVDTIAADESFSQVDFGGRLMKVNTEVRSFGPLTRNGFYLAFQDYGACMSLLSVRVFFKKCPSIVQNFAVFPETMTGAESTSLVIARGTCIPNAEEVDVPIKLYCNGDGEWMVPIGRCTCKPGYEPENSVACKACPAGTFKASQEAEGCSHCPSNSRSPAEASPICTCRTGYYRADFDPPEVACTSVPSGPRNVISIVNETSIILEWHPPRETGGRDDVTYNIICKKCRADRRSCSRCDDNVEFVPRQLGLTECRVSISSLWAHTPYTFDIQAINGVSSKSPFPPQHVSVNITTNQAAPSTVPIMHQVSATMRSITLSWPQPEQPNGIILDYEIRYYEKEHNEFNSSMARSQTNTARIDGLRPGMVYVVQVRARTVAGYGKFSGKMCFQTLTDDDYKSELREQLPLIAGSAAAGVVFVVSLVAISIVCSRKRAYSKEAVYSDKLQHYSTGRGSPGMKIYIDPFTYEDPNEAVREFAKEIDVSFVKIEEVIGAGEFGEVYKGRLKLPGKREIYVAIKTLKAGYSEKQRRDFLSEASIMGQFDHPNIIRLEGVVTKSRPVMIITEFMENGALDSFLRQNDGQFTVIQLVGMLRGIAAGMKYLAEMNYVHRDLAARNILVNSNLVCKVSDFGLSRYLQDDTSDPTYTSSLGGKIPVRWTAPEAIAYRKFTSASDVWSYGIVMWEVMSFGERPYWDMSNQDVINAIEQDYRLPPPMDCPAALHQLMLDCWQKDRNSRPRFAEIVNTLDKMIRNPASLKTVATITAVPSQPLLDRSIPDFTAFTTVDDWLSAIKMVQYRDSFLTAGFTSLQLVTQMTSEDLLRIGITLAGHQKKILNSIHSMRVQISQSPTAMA
Chain of Fyn (P06241 whole entry, looked up): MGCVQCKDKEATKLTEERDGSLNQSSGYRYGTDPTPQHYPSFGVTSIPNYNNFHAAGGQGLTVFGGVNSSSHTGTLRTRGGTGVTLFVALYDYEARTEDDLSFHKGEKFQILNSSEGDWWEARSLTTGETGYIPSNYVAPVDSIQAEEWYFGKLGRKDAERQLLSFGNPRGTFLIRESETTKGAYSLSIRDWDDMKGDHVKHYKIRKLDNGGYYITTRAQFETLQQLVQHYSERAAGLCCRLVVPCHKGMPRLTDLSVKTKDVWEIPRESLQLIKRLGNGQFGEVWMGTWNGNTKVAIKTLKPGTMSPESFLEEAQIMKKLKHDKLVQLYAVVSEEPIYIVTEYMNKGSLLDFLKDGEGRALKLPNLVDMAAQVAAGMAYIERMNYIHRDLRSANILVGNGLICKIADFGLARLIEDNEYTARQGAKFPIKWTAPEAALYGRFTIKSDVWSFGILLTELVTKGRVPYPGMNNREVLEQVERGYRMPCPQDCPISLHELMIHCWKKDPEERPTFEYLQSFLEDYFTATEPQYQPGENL
Chain of Grb2 SH2 (P62993 whole entry, looked up): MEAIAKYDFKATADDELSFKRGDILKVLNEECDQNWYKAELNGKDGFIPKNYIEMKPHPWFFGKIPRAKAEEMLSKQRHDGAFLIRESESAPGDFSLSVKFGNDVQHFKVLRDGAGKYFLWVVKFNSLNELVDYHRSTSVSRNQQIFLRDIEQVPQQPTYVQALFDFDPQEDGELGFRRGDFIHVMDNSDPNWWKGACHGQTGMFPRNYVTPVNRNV
Chain of Jak2 (O60674 whole entry, looked up): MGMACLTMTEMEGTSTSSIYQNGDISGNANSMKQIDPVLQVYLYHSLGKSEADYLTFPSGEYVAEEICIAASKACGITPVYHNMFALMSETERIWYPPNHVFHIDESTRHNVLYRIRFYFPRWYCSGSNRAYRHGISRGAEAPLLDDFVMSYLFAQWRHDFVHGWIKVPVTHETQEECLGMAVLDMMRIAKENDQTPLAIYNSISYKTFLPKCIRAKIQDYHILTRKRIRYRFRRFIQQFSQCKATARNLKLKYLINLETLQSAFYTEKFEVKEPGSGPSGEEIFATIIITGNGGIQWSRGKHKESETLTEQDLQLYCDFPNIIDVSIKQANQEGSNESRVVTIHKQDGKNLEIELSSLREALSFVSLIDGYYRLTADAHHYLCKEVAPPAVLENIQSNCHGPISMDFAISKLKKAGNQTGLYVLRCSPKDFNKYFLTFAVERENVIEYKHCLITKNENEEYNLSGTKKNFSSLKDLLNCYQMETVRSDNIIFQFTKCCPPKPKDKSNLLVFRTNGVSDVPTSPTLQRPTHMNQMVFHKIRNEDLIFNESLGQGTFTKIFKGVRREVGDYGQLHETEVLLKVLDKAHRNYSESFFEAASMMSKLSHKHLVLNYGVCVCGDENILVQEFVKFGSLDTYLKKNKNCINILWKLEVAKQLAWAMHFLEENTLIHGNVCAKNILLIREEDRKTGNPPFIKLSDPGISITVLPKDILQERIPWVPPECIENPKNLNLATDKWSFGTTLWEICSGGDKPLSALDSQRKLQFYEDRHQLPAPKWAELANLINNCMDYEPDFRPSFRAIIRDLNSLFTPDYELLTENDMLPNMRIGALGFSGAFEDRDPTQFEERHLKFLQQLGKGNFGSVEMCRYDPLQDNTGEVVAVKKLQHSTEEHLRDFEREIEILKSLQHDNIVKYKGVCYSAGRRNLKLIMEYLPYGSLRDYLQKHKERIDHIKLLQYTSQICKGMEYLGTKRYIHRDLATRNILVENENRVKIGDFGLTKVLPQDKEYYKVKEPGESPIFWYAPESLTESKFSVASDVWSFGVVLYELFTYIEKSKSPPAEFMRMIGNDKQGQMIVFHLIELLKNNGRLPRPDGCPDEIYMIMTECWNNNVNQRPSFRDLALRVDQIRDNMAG

Row | Sequence | phosphorylation enrichment [1] | phosphorylation enrichment [2] | phosphorylation enrichment [3] | phosphorylation enrichment [4] | phosphorylation enrichment [5] | phosphorylation enrichment [6] | phosphorylation enrichment [7] | phosphorylation enrichment [8] | phosphorylation enrichment [9] | phosphorylation enrichment [10] | phosphorylation enrichment [11] | phosphorylation enrichment [12] | phosphorylation enrichment [13] | SH2 binding enrichment [14] | SH2 binding enrichment [15] | SH2 binding enrichment [16]
1 | DKMEAYNINET [TEKT4_Y210_D213N] | 0.489 | 0.488 | 0.481 | 0.663 | 0.535 | 0.505 | 1.09 | 0.808 | 0.492 | 0.577 | 1.13 | 1.27 | 0.535 | 0.444 | 0.951 | 0.665
2 | DLAHKYHGGGG [HBB_Y146_A141D] | 0.32 | 0.333 | 0.43 | 0.388 | 0.348 | 0.373 | 0.441 | 0.394 | 0.452 | 0.388 | 0.545 | 0.473 | 0.392 | 0.42 | 0.722 | 0.54
3 | DLDLTSIYPNI [PTEN_Y27_Y27S] | 0.425 | 0.498 | 0.468 | 0.78 | 0.478 | 0.506 | 0.871 | 0.837 | 0.516 | 0.53 | 0.903 | 0.955 | 0.582 | 0.949 | 0.808 | 0.614
4 | DMQTLYVNTAA [SMCHD1_Y403] | 0.482 | 0.428 | 0.471 | 0.478 | 0.578 | 0.485 | 0.647 | 0.734 | 0.513 | 0.418 | 0.518 | 0.588 | 0.64 | 0.635 | 4.57 | 0.643
5 | DNEAIYDICRC [TUBA4A_Y210_R215C] | 7.98 | 1.82 | 0.633 | 0.761 | 7.18 | 9.3 | 3.65 | 10.3 | 5.93 | 6.51 | 0.923 | 1.28 | 4.87 | 0.524 | 0.932 | 0.662
6 | DNEYAYLKAII [HNF4A_Y288] | 0.667 | 1.68 | 3.79 | 2.4 | 1.58 | 0.615 | 1.27 | 2.79 | 0.603 | 0.599 | 0.856 | 1.01 | 0.97 | 0.391 | 0.732 | 0.513
7 | DPEATYTTSGS [EPHA2_Y772_G777S] | 0.48 | 0.476 | 0.425 | 0.596 | 0.598 | 0.518 | 0.889 | 0.617 | 0.34 | 0.633 | 0.694 | 0.981 | 0.518 | 0.571 | 0.873 | 0.731
8 | DPGVSYHTREE [PDHA1_Y301_R302H] | 0.383 | 0.351 | 0.452 | 0.548 | 0.551 | 0.483 | 0.677 | 0.399 | 0.405 | 0.41 | 0.465 | 0.764 | 0.429 | 0.359 | 0.65 | 0.713
9 | DPHKIFEFVNS [IRF3_Y107_Y107F] | 0.771 | 0.54 | 0.643 | 0.596 | 0.607 | 0.606 | 0.791 | 0.431 | 0.412 | 0.417 | 0.615 | 0.88 | 0.539 | 0.425 | 0.662 | 0.703
10 | DPTFGYEDFTR [SESN2_Y323] | 0.445 | 0.525 | 0.481 | 0.699 | 0.595 | 0.461 | 1.08 | 0.733 | 0.545 | 0.694 | 1.03 | 1.28 | 0.577 | 5.25 | 0.821 | 0.771
11 | DQLVKYGVNPG [TMPO_Y127] | 0.356 | 0.467 | 0.292 | 0.49 | 0.363 | 0.369 | 0.553 | 0.475 | 0.314 | 0.294 | 0.479 | 0.605 | 0.325 | 0.539 | 0.888 | 0.498
12 | DRLANYLEKVR [KRT40_Y103_S102N] | 0.373 | 0.337 | 0.382 | 0.64 | 0.38 | 0.399 | 0.651 | 0.469 | 0.41 | 0.395 | 0.587 | 0.74 | 0.424 | 0.339 | 0.764 | 0.731
13 | DRLASYLEKVR [KRT13_Y118] | 0.424 | 0.372 | 0.393 | 0.384 | 0.375 | 0.366 | 0.736 | 0.451 | 0.424 | 0.412 | 0.616 | 0.677 | 0.399 | 0.423 | 0.93 | 0.676
14 | DRSSLYLVAGP [KIAA1614_Y1083_N1078D] | 0.615 | 0.709 | 0.593 | 0.665 | 0.842 | 0.523 | 1.25 | 0.652 | 1.33 | 0.749 | 1.08 | 1.13 | 0.833 | 0.519 | 0.781 | 0.685
15 | DSGKLYALDVL [INO80_Y1104] | 0.676 | 0.711 | 0.525 | 0.721 | 0.58 | 0.752 | 0.921 | 0.643 | 3.17 | 1.02 | 0.731 | 0.93 | 0.705 | 0.668 | 0.744 | 0.729
16 | DSSIRYLQEIF [FGG_Y135_YF] | 0.417 | 0.576 | 0.632 | 0.604 | 0.527 | 0.559 | 0.868 | 0.545 | 0.542 | 0.497 | 0.755 | 0.924 | 0.5 | 0.473 | 0.856 | 0.693
17 | DSSIRYLQEIY [FGG_Y135] | 0.549 | 0.587 | 0.59 | 0.655 | 0.948 | 0.776 | 0.893 | 0.567 | 0.438 | 1.14 | 0.733 | 1.02 | 0.585 | 0.526 | 0.935 | 0.629

Row | Sequence | phosphorylation enrichment [1] | phosphorylation enrichment [2] | phosphorylation enrichment [3] | phosphorylation enrichment [4] | phosphorylation enrichment [5] | phosphorylation enrichment [6] | phosphorylation enrichment [7] | phosphorylation enrichment [8] | phosphorylation enrichment [9] | phosphorylation enrichment [10] | phosphorylation enrichment [11] | phosphorylation enrichment [12] | phosphorylation enrichment [13] | SH2 binding enrichment [14] | SH2 binding enrichment [15] | SH2 binding enrichment [16]
18 | DTSKMYIPHTD [EXPH5_Y782] | 0.436 | 0.487 | 0.445 | 0.577 | 0.427 | 0.372 | 0.624 | 0.549 | 0.399 | 0.371 | 0.606 | 0.786 | 0.405 | 0.417 | 0.679 | 0.512
19 | DWQQEYVLNES [TGM1_Y267_R264Q] | 0.434 | 1.42 | 1.11 | 0.996 | 0.6 | 0.648 | 2.03 | 0.788 | 0.427 | 2.73 | 0.957 | 1.45 | 0.615 | 0.506 | 0.766 | 0.681
20 | DWRQEYVLNEP [TGM1_Y267_S272P] | 0.55 | 0.407 | 1.7 | 1.24 | 0.397 | 0.672 | 1.24 | 0.669 | 0.495 | 1.89 | 0.988 | 1.13 | 0.426 | 0.523 | 0.877 | 0.75
21 | DWRQEYVLNES [TGM1_Y267] | 0.558 | 0.55 | 0.878 | 0.909 | 0.686 | 0.593 | 1.23 | 0.677 | 0.53 | 1.36 | 0.863 | 1.15 | 0.817 | 0.449 | 0.856 | 0.702
22 | DYSLKYPTDIP [APC_Y1183_A1184P] | 0.476 | 0.618 | 0.691 | 0.866 | 0.503 | 0.534 | 0.867 | 0.52 | 0.549 | 0.442 | 0.852 | 0.844 | 0.478 | 0.438 | 0.765 | 0.666
23 | EAESWYQTKYE [KRT75_Y342] | 0.505 | 0.641 | 0.491 | 0.752 | 0.545 | 0.546 | 1.15 | 0.686 | 0.505 | 0.62 | 1.07 | 1.21 | 0.655 | 0.547 | 0.858 | 0.437
24 | EAVSIYQFYGQ [CBLC_Y402_H405Y] | 9.22 | 10.1 | 1.6 | 1.77 | 7.5 | 9.16 | 2.11 | 4.8 | 9.05 | 7.02 | 1.22 | 1.38 | 11.6 | 0.574 | 0.821 | 0.857
25 | ECIEFYELDKK [PMM2_Y145_R141C] | 0.589 | 0.579 | 0.569 | 0.776 | 0.572 | 0.501 | 1.22 | 0.825 | 0.485 | 0.999 | 0.977 | 1.13 | 0.596 | 0.805 | 1.11 | 0.662
26 | EDASEYYENYI [PARP4_Y214_F215Y] | 0.995 | 0.782 | 1.66 | 1.6 | 0.666 | 0.738 | 1.93 | 0.716 | 0.467 | 1.02 | 1.02 | 1.3 | 0.761 | 0.582 | 0.857 | 0.589
27 | EDSEYYRAFEE [CASQ2_Y179_K180R] | 0.518 | 0.823 | 0.937 | 1.26 | 0.675 | 0.765 | 2.96 | 0.915 | 0.497 | 0.754 | 1.37 | 1.6 | 0.724 | 0.411 | 0.939 | 0.559
28 | EEGENYQKGEQ [CHGB_Y173_R178Q] | 0.51 | 0.592 | 0.637 | 0.747 | 0.519 | 0.519 | 1.28 | 0.898 | 0.561 | 0.545 | 1.4 | 1.28 | 0.63 | 0.472 | 0.876 | 0.473
29 | EEQKKYFNATK [SCN5A_Y1494_M1498T_YF] | 0.366 | 0.356 | 0.49 | 0.582 | 0.379 | 0.34 | 0.607 | 0.459 | 0.269 | 0.377 | 0.6 | 0.729 | 0.479 | 0.581 | 0.766 | 0.516
30 | EEQKKYYNAVK [SCN5A_Y1494_M1498V] | 0.393 | 0.368 | 0.425 | 0.486 | 0.496 | 0.429 | 0.651 | 0.574 | 0.426 | 0.548 | 0.625 | 0.789 | 0.433 | 0.584 | 1.06 | 0.878
31 | EGQKIYIDDNN [PIP4K2A_Y246] | 0.484 | 0.586 | 0.584 | 0.667 | 0.548 | 0.568 | 1.04 | 0.74 | 0.412 | 0.467 | 0.984 | 1.15 | 0.539 | 0.416 | 0.699 | 0.696
32 | EGWQVYRLGAR [MISP_Y95] | 0.396 | 0.493 | 0.5 | 0.607 | 1.12 | 2.59 | 0.9 | 0.625 | 0.423 | 4.5 | 0.697 | 0.857 | 0.439 | 0.515 | 0.901 | 0.662
33 | EIELAYRRRPP [GRIN2B_Y1109] | 0.458 | 0.448 | 0.41 | 0.455 | 0.433 | 0.45 | 0.661 | 0.437 | 0.385 | 0.353 | 0.556 | 0.587 | 0.451 | 0.387 | 0.642 | 0.569
